Laboratory results as given in article PMC5114558, “Reader domain specificity and lysine demethylase-4 family function” (Nature Communications, 2016).
Numbering of substitutions follows the chain as printed. Values belong to the binder of their own block, whether it stands above or below them. No end group written: not given here. Me3 = trimethyl-lysine

Key:
Settings in all cases: both partners purified
[1] = biological target: T1, KDM4A double tudor domain (KDM4A-DTD), His6 tag cleaved, for crystallization (human, UniProt O75164 895-1011); experiment: crystal structure; KDM4A-DTD mixed with H3K23me3 peptide at about 1:1.5, crystallized at 20 °C in 100 mM CAPS pH 10.5, 200 mM lithium sulfate, 1.2 M NaH2PO4, 0.8 M K2HPO4
T1 construct: Human KDM4A double tudor domain, residues 895-1011 of UniProt O75164 (isoform 1); pET28 construct (pET28b in the plasmid section, pET28a in the purification section); also called N-His6-KDM4A-DTD; source: E. coli BL21 (DE3), purified (HisTrap, thrombin cleavage, gel filtration); not shown: His6, N-terminal, cleaved
T1 sequence (looked up): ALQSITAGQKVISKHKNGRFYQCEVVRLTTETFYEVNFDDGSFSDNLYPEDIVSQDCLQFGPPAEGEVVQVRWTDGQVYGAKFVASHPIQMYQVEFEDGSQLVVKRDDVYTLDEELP

KDM4A-DTD N931D = biological target: T2, KDM4A-DTD N931D (human, UniProt O75164 895-1011, N931D); experiment: fluorescence polarisation; fluorescein-labelled histone peptide 3 nM, KDM4 DTD titrated 0.1-100 μM; 30 mM HEPES, 150 mM NaCl pH 7.4, 0.01% Triton X-100
T2 construct: Human KDM4A double tudor domain, residues 895-1011 of UniProt O75164 (isoform 1); source: E. coli BL21 (DE3), purified (Ni-NTA)
T2 sequence (looked up): T1 sequence (looked up) with N37D

KDM4B-DTD N960A = biological target: T3, KDM4B-DTD N960A (human, UniProt O94953 917-1031, N960A); experiment: as above
T3 construct: Human KDM4B double tudor domain, residues 917-1031 of UniProt O94953 (isoform 1); also called N960A variant; source: E. coli BL21 (DE3), purified (Ni-NTA)
T3 sequence (looked up): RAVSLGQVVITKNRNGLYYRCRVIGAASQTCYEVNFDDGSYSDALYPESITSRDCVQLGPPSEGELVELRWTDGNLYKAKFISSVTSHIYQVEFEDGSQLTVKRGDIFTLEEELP

KDM4B-DTD S965D = biological target: T4, KDM4B-DTD S965D (human, UniProt O94953 917-1031, S965D); experiment: as above
T4 construct: Human KDM4B double tudor domain, residues 917-1031 of UniProt O94953 (isoform 1); also called KDM4B-S965D; source: E. coli BL21 (DE3), purified (Ni-NTA)
T4 sequence (looked up): T3 sequence (looked up) with A44N, S49D

[2] = biological target: T5, KDM4C double tudor domain (KDM4C-DTD), HaloTag-tagged, wild type (human, UniProt Q9H3R0 877-991); experiment: as above
T5 construct: Human KDM4C double tudor domain, residues 877-991 of UniProt Q9H3R0 (isoform 1); pFN29 construct; also called HT-KDM4 DTD; source: E. coli BL21 (DE3), purified (Ni-NTA); not shown: HaloTag, N-terminal, kept
T5 sequence (looked up): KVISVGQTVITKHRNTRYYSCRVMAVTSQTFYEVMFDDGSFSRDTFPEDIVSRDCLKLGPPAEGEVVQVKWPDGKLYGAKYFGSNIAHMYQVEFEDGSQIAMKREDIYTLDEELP

- binding result [1]: binds
B1: H3 (19-28) K23me3 peptide for co-crystallization (peptide, UniProt P68431 20-29, looked up)
peptide: QLATK(Me3)AARKS
notes: density seen for Q19-K27; also called H3K23me3 peptide; H3 (19-27) K23me3 peptide; source: synthetic peptide, bought: Peptide 2.0

- Kd (KDM4A-DTD N931D): 12.2 µM
Binder: ARKSTGGK(Me3)APRKQLATK (also: fluorescein label, end not given here) [H3K14me3 peptide, fluorescein-labelled]

- Kd (KDM4B-DTD N960A): 303 µM
- Kd (KDM4B-DTD S965D): ~200 µM
- Kd [2]: 6.8 µM
Binder: ARTK(Me3)QTARKSTGGK (also: fluorescein label, end not given here) [H3K4me3 peptide, fluorescein-labelled]
